From patent US20060172380

Test system: TAB1 (437-504)

Substance: TAK1-HA
- in vitro kinase assay of immunoprecipitated TAK1 (activation of XMEK2 (SEK1), phosphorylation of KN-p38 (MPK2)): TAB1 increases TAK1 kinase activity
